According to patent publication US7151087:

Substrate: CC chemokine receptor 5 (CCR5), clone 8.5 cDNA, stably expressed on HEK 293 cells (human), P51681
Assay: homologous competition against ^125I-RANTES on CCR5.1 cells, 37° C.
Conditions: remark: other sources report otherwise

Chain of CC chemokine receptor 5 (CCR5), clone 8.5 cDNA, stably expressed on HEK 293 cells (human), P51681 (P51681 whole entry): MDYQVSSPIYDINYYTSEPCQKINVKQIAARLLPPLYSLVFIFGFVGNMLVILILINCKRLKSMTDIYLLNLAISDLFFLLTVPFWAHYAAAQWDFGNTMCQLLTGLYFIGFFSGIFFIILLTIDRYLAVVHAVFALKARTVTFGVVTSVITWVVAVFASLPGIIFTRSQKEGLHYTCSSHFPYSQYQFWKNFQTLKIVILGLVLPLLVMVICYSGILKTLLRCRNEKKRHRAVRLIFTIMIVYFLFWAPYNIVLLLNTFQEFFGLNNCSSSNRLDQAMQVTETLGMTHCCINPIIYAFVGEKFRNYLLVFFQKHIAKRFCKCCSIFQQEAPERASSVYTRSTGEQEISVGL

- IC50: 0.08 µM
B1: RANTES, P13501 24-91 (ligand, human, UniProt P13501 24-91, looked up)
chain: SPYSSDTTPCCFAYIARPLPRAHIKEYFYTSGKCSNPAVVFVTRKNRQVCANPEKKWVREYINSLEMS
